In publication PMC9408373, “CDC42-IQGAP Interactions Scrutinized: New Insights into the Binding Properties of the GAP-Related Domain” (International Journal of Molecular Sciences, 2022):

T1: human IQGAP2 GRD2 (aa 875-1246) (human, UniProt Q13576 875-1246)
T1 construct: source: E. coli, purified (glutathione Sepharose), GST cleaved with thrombin; not shown: GST, N-terminal, cleaved
T1 sequence (looked up): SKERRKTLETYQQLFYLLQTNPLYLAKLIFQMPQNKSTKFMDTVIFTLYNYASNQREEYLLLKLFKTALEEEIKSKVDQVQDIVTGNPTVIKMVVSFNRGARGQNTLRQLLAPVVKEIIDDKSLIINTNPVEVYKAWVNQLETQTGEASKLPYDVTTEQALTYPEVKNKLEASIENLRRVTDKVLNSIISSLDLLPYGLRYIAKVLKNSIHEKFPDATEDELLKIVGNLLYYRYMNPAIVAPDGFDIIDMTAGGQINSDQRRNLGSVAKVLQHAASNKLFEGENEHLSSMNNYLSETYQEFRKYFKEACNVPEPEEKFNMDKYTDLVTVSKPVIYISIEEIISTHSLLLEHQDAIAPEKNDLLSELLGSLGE

B1: human IQGAP1 C794 (aa 863-1657) (domain or fragment, UniProt P46940 863-1657, looked up)
chain: DPPMVVVRKFVHLLDQSDQDFQEELDLMKMREEVITLIRSNQQLENDLNLMDIKIGLLVKNKITLQDVVSHSKKLTKKNKEQLSDMMMINKQKGGLKALSKEKREKLEAYQHLFYLLQTNPTYLAKLIFQMPQNKSTKFMDSVIFTLYNYASNQREEYLLLRLFKTALQEEIKSKVDQIQEIVTGNPTVIKMVVSFNRGARGQNALRQILAPVVKEIMDDKSLNIKTDPVDIYKSWVNQMESQTGEASKLPYDVTPEQALAHEEVKTRLDSSIRNMRAVTDKFLSAIVSSVDKIPYGMRFIAKVLKDSLHEKFPDAGEDELLKIIGNLLYYRYMNPAIVAPDAFDIIDLSAGGQLTTDQRRNLGSIAKMLQHAASNKMFLGDNAHLSIINEYLSQSYQKFRRFFQTACDVPELQDKFNVDEYSDLVTLTKPVIYISIGEIINTHTLLLDHQDAIAPEHNDPIHELLDDLGEVPTIESLIGESSGNLNDPNKEALAKTEVSLTLTNKFDVPGDENAEMDARTILLNTKRLIVDVIRFQPGETLTEILETPATSEQEAEHQRAMQRRAIRDAKTPDKMKKSKSVKEDSNLTLQEKKEKIQTGLKKLTELGTVDPKNKYQELINDIARDIRNQRRYRQRRKAELVKLQQTYAALNSKATFYGEQVDYYKSYIKTCLDNLASKGKVSKKPREMKGKKSKKISLKYTAARLHEKGVLLEIEDLQVNQFKNVIFEISPTEEVGDFEVKAKFMGVQMETFMLHYQDLLQLQYEGVAVMKLFDRAKVNVNLLIFLLNKKFYGK
notes: source: E. coli, purified (glutathione Sepharose), GST cleaved with thrombin; not shown: GST, N-terminal, cleaved
B2: human CDC42 (aa 1-178), wild type (natural protein)
chain: not shown
notes: Loaded with mant-GppNHp or mant-GDP (fluorescence assays) or GppNHp (SEC); also called CDC42 WT; CDC42^wt; source: E. coli, purified (glutathione Sepharose), GST cleaved with thrombin; not shown: GST, N-terminal, cleaved
B3: human CDC42 (aa 1-178) Q61L (natural protein)
chain: not shown
notes: also called CDC42^Q61L; CDC42(Q61L); source: E. coli, purified (glutathione Sepharose), GST cleaved with thrombin; not shown: GST, N-terminal, cleaved
B4: human IQGAP1 GRD1 (aa 962-1345) (domain or fragment, UniProt P46940 962-1345, looked up)
chain: SKEKREKLEAYQHLFYLLQTNPTYLAKLIFQMPQNKSTKFMDSVIFTLYNYASNQREEYLLLRLFKTALQEEIKSKVDQIQEIVTGNPTVIKMVVSFNRGARGQNALRQILAPVVKEIMDDKSLNIKTDPVDIYKSWVNQMESQTGEASKLPYDVTPEQALAHEEVKTRLDSSIRNMRAVTDKFLSAIVSSVDKIPYGMRFIAKVLKDSLHEKFPDAGEDELLKIIGNLLYYRYMNPAIVAPDAFDIIDLSAGGQLTTDQRRNLGSIAKMLQHAASNKMFLGDNAHLSIINEYLSQSYQKFRRFFQTACDVPELQDKFNVDEYSDLVTLTKPVIYISIGEIINTHTLLLDHQDAIAPEHNDPIHELLDDLGEVPTIESLIGESS
notes: as for B1
B5: human IQGAP2 C795 (aa 780-1575) (domain or fragment, UniProt Q13576 780-1575, looked up)
chain: PLTVIRKFVYLLDQSDLDFQEELEVARLREEVVTKIRANQQLEKDLNLMDIKIGLLVKNRITLEDVISHSKKLNKKKGGEMEILNNTDNQGIKSLSKERRKTLETYQQLFYLLQTNPLYLAKLIFQMPQNKSTKFMDTVIFTLYNYASNQREEYLLLKLFKTALEEEIKSKVDQVQDIVTGNPTVIKMVVSFNRGARGQNTLRQLLAPVVKEIIDDKSLIINTNPVEVYKAWVNQLETQTGEASKLPYDVTTEQALTYPEVKNKLEASIENLRRVTDKVLNSIISSLDLLPYGLRYIAKVLKNSIHEKFPDATEDELLKIVGNLLYYRYMNPAIVAPDGFDIIDMTAGGQINSDQRRNLGSVAKVLQHAASNKLFEGENEHLSSMNNYLSETYQEFRKYFKEACNVPEPEEKFNMDKYTDLVTVSKPVIYISIEEIISTHSLLLEHQDAIAPEKNDLLSELLGSLGEVPTVESFLGEGAVDPNDPNKANTLSQLSKTEISLVLTSKYDIEDGEAIDSRSLMIKTKKLIIDVIRNQPGNTLTEILETPATAQQEVDHATDMVSRAMIDSRTPEEMKHSQSMIEDAQLPLEQKKRKIQRNLRTLEQTGHVSSENKYQDILNEIAKDIRNQRIYRKLRKAELAKLQQTLNALNKKAAFYEEQINYYDTYIKTCLDNLKRKNTRRSIKLDGKGEPKGAKRAKPVKYTAAKLHEKGVLLDIDDLQTNQFKNVTFDIIATEDVGIFDVRSKFLGVEMEKVQLNIQDLLQMQYEGVAVMKMFDKVKVNVNLLIYLLNKKFYGK
notes: as for B1

What was measured:
Conditions in all cases: both partners purified
[1] = biological target: B2; assay: fluorescence polarisation; 1 µM mant-GDP-bound CDC42 in the cuvette, IQGAP protein titrated; quadratic ligand binding equation
[2] = biological target: B5; assay: fluorescence polarisation; 1 µM mant-GppNHp-bound CDC42 in the cuvette, IQGAP protein titrated; quadratic ligand binding equation
[3] = biological target: B4; assay: as above
[4] = biological target: T1, human IQGAP2 GRD2 (aa 875-1246); assay: as above
[5] = biological target: B1; assay: as above
[6] = biological target: B3; assay: SEC; GppNHp-bound CDC42 mixed with IQGAP1 GRD1; Superdex 200 10/300, 30 mM Tris/HCl pH 7.5, 150 mM NaCl, 5 mM MgCl2; stoichiometry from calibrated elution volumes
[7] = biological target: B2; assay: as above

fold higher affinity for mGppNHp-bound than for mGDP-bound CDC42 [1] | Kd [3] | Kd [4] | Binder | further results
~100 fold |  |  | B1 | 
 | 186000 nM | 69000 nM | B2 | Kd [2]: 900 nM; Kd [5]: 600 nM
 | 2700 nM | 2500 nM | B3 | 
 |  |  | B4 | stoichiometry N [6]: 2 ratio 2:1 as printed (which partner is the 2 is not told); stoichiometry N [7]: 1 GRD1 per CDC42 (2:2)
~100 fold |  |  | B5 | 
